Experimental findings from doi:10.1101/2021.08.28.458030 are described below.

This experiment concerns the target T1, Human fumarase (human), P07954.
T1 chain: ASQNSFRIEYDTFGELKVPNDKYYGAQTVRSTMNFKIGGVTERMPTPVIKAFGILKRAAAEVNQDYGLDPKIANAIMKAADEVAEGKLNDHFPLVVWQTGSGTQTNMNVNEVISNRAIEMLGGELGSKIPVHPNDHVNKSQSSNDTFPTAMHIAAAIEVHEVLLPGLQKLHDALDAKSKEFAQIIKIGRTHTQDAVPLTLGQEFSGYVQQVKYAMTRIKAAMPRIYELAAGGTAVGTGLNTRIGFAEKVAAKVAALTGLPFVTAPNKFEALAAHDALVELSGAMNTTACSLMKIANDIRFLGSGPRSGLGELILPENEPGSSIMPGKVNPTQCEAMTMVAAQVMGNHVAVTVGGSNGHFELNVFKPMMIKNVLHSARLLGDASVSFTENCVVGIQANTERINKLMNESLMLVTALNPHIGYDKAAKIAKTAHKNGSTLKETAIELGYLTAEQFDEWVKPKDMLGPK
Briefly: crystal structure. Particulars: remark: other sources report otherwise.

B1: Human fumarase, P07954 45-510 (enzyme)
chain: T1 chain
Regarding B1, the stoichiometry N turned out to be 4.

In general, stoichiometry N refers to a count of units in the complex or per binding partner.
